pIC50, pKd: −log10 of the molar value.
Legend:
[1] = biological target: HLA-A*02:01; assay: IEDB peptide-MHC binding, purified MHC/competitive/fluorescence; ≥ and ≤ were set here for values at or beyond the usual limits of such assays
[2] = biological target: HLA-A*01:01; assay: IEDB peptide-MHC binding, purified MHC/direct/fluorescence; filed as Kd, often an IC50 or EC50 that approximates it; ≥ and ≤ were set here for values at or beyond the usual limits of such assays
[3] = biological target: HLA-B*44:02; assay: IEDB peptide-MHC binding, purified MHC/competitive/radioactivity; filed as Kd, often an IC50 or EC50 that approximates it; ≥ and ≤ were set here for values at or beyond the usual limits of such assays
[4] = biological target: HLA-B*44:03; assay: as above; conditions: source organism: Dengue virus 2 Jamaica/1409/1983
[5] = biological target: HLA-A*69:01; assay: IEDB peptide-MHC binding, purified MHC/direct/fluorescence; filed as Kd, often an IC50 or EC50 that approximates it; ≥ and ≤ were set here for values at or beyond the usual limits of such assays
[6] = biological target: HLA-B*07:02; assay: as above; conditions: source organism: Mycobacterium tuberculosis F11
[7] = biological target: HLA-A*32:01; assay: IEDB peptide-MHC binding, purified MHC/competitive/radioactivity; filed as Kd, often an IC50 or EC50 that approximates it; ≥ and ≤ were set here for values at or beyond the usual limits of such assays
[8] = biological target: HLA-A*30:02; assay: as above
[9] = biological target: HLA-A*26:01; assay: as above
[10] = biological target: HLA-A*01:01; assay: as above
[11] = biological target: HLA-A*31:01; assay: IEDB peptide-MHC binding, purified MHC/direct/fluorescence; filed as Kd, often an IC50 or EC50 that approximates it; ≥ and ≤ were set here for values at or beyond the usual limits of such assays; conditions: source organism: Escherichia coli
[12] = biological target: HLA-A*03:01; assay: as above
[13] = biological target: HLA-B*40:01; assay: as above; conditions: source organism: Mycobacterium tuberculosis
[14] = biological target: HLA-A*11:01; assay: as above; conditions: source organism: SARS-CoV1
[15] = biological target: HLA-B*58:01; assay: as above; conditions: source organism: SARS-CoV1
[16] = biological target: HLA-A*02:01; assay: as above; conditions: source organism: Yersinia pestis
[17] = biological target: HLA-B*15:01; assay: as above; conditions: source organism: Yersinia pestis
[18] = biological target: HLA-B*40:01; assay: IEDB peptide-MHC binding, purified MHC/competitive/radioactivity; filed as Kd, often an IC50 or EC50 that approximates it; ≥ and ≤ were set here for values at or beyond the usual limits of such assays
[19] = source organism: Sudan ebolavirus
[20] = source organism: Dengue virus 1 Brazil/97-11/1997
[21] = source organism: Dengue virus 2 Jamaica/1409/1983
[22] = source organism: Zaire ebolavirus
[23] = source organism: Mycobacterium tuberculosis F11
[24] = source organism: Dengue virus 1 Singapore/S275/1990
[25] = source organism: Dengue virus 3 Martinique/1243/1999

FLQSPPIRE
pIC50 [1, 19]: 4.42

CASSSDWFY
pKd ([2]; source organism: Tobacco leaf curl Zimbabwe virus): 8.68

MEVDRSEAK
pKd [3, 20]: 5.10

LEENVEVEIW
pKd [4]: 6.44 | pKd [3, 21]: 6.91

FLQGAKWYL
pKd ([5]; source organism: Mycobacterium tuberculosis): 6.33

APEFVTAAA
pKd [6]: 6.03

MLYGIAQKI
pKd ([7]; source organism: Vaccinia virus Copenhagen): 7.91

GVVTTSGTY
pKd [8, 20]: 6.77 | pKd [9, 20]: 6.39

MSYSMCTGKF
pKd [8, 21]: 5.96 | pKd [10, 21]: 4.74 | pKd [9, 21]: 7.10

TTHTSGPSV
pIC50 [1, 19]: 4.75

MPKPSLFVR
pKd [11]: 6.69 | pKd ([12]; source organism: Escherichia coli): ≤ 4.70

LENIIVPGL
pKd [13]: 7.15

LAWIPYFGP
pIC50 [1, 22]: 4.75

AVNPGGNIY
pKd [2, 23]: 5.52 | pKd [12, 23]: ≤ 4.70

SALNHTKKW
pKd [14]: 4.77 | pKd [15]: 6.46

FMHSAAPIT
pKd [16]: 6.67 | pKd ([5]; source organism: Yersinia pestis): 5.12 | pKd [17]: 5.72

LENDMKFTV
pKd [18, 24]: 6.91

TLEDDRERL
pIC50 ([1]; source organism: Variola virus): 4.52

MESEGIFSP
pKd [18, 24]: 5.64

FEKQLGQIM
pKd [18, 20]: 6.25 | pKd [3, 20]: 5.59

GEDAPCKIPF
pKd [3, 25]: 7.23

EEQTLTILI
pKd [4]: 6.84 | pKd [3, 21]: 7.85

EEIAVQNWLA
pKd [4]: 6.37

VRLHPLART
pIC50 [1, 22]: ≤ 3.48

EVPFCSHHF
pKd ([9]; source organism: Dengue virus 4 Philippines/H241/1956): 5.18

SEKNETWKL
pKd [18, 20]: 6.95 | pKd [3, 20]: 6.82

EDMLAVWNRV
pKd [7, 21]: 6.66

VMCSISLTY
pKd ([7]; source organism: Vaccinia virus WR): 7.97

KLELKGMSY
pKd [8, 25]: ≤ 4.11 | pKd [10, 25]: 6.41

DFLLRRWGG
pIC50 [1, 19]: 4.25
